Laboratory results published in publication PMC4059961, “The transcriptional network of WRKY53 in cereals links oxidative responses to biotic and abiotic stress inputs”.

B1: POC1 promoter probe (dsDNA)
DNA 1: ACGTAAATTTTTTGAATAAGACAAATGGTCAAACATGTAAGAAAAGAAAGTCAACGGCGTCATCTATTTAAAAAACGGAT
DNA 2: ATCCGTTTTTTAAATAGATGACGCCGTTGACTTTCTTTTCTTACATGTTTGACCATTTGTCTTATTCAAAAAATTTACGT
B2: ORK10 promoter probe (dsDNA)
DNA 1: ATCTGGTCAACAATGTATTACACACTGCTTTGACTACTTCCCCCAAAAAAGTACACACTGCTTTGACTCAGGTCAAACTT
DNA 2: AAGTTTGACCTGAGTCAAAGCAGTGTGTACTTTTTTGGGGGAAGTAGTCAAAGCAGTGTGTAATACATTGTTGACCAGAT

Target: SUMO::TaWRKY53 (Triticum aestivum L. cv. Gamtoos-R)
Sequence (chain, as listed by the source): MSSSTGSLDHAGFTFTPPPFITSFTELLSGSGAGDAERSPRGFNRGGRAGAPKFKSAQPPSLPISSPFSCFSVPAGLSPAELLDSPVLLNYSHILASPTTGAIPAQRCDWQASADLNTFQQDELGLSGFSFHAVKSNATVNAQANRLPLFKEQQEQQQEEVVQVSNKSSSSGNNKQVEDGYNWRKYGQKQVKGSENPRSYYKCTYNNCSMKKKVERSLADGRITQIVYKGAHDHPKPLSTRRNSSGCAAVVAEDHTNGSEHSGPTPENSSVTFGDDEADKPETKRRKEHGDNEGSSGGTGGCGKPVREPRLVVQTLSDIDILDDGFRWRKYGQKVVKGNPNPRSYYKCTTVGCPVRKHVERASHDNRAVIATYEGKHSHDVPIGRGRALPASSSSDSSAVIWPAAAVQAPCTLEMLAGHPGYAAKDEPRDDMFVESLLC
Test: EMSA; Probe EMSA: 10 mM Tris, 50 mM KCl, 1 mM DTT, pH 7.5, 20 min, room temperature; 1-kb EMSA: 10 mM Tris, 100 mM KCl, 1 mM EDTA, 0.1 mM DTT, 5% glycerol, 0.01 mg/mL BSA, pH 7.5, room temperature
Conditions: protein: recombinant; tags: N-terminal 6xHis-SUMO; label: biotin; blunt

| Binder | binding result |
| --- | --- |
| B1 | binds |
| B2 | binds |
